According to patent US20190111164A1:

Columns and labels:
Assay in all cases: glycopeptide microarray, antibody at 50 ug/mL
Tn3 linker = molecular target: Tn3 linker
IgA-Pep13 = molecular target: T1, IgA-Pep13
T1 sequence (peptide, Tn (GalNAc, marked *) on S3 and T7): KPSTPPTPSPSC

PADRE Tn3b = molecular target: PADRE Tn3b
IgA-Pep11 = molecular target: T2, IgA-Pep11
T2 sequence (peptide, Tn (GalNAc, marked *) on S3, S5 and T9): KPSPSTPPTPSC

B-MUC2 = molecular target: T3, B-MUC2
T3 sequence (peptide, N-terminal acetyl; Tn (GalNAc, marked *) on T3; C-terminal amide): PTTTPLK

D-MUC2 = molecular target: T4, D-MUC2
T4 sequence (peptide, N-terminal acetyl; Tn (GalNAc, marked *) on T2 and T3; C-terminal amide): PTTTPLK

B1: 2F3 variant #6 (antibody, IgG1, V domains shown)
VH: QVQLLESGGGLVQPGGSLRLSCAASGFTFDSYAMSWVRQAPGKGLEWVSAISGSGASTYYADSVKGRFSISRDNSKNTLYLQMNSLRAEDTAVYYCAIRREYSGYAPFDYWGQGTLVIVSS
VL: DIVMTQTPSSLSASVGDRVTITCRASQGISSWLAWYQQKPEKAPRSLIYAASSLQSGVPSRFSGSGSGTDFTLTISSLQPEDFATYYCQQYISYPYTFGQGTKLEIK
Tn3 linker
  RLU: 21 RLU
IgA-Pep13
  RLU: 253 RLU
PADRE Tn3b
  RLU: -84 RLU
IgA-Pep11
  RLU: 311 RLU

B2: 2F3 parent antibody (antibody, V domains shown)
VH: QITLRESGGGLVQPGGSLRLSCAASGFTFDSYAMSWVRQAPGKGLEWVSAISGSGDSTYYADSVKGRFSISRDNSKNTLYLQMNSLRAEDTAVYYCAIRREYSGYAPFDYWGQGTLVTVSS
VL: DIVMTQTPSSLSASVGDRVTITCRASQGISSWLAWYQQKPEKAPRSLIYAASSLQSGVPSRFSGSGSGTDFTLTISSLQPEDFATYYCQQYISYPYTFGQGTKLEIK
Tn3 linker
  RLU: 8 RLU
PADRE Tn3b
  RLU: 13 RLU

B3: 2F3 variant #17v2 (antibody, IgG1, V domains shown)
VH: QITLRESGGGLVQPGGSLRLSCAASGFTFDSYAMSWVRQAPGKGLEWVSAISGSGHSTYYADSVKGRFSISRDNSKNTLYLQMNNLRAEDTAVYYCAIRREYSGYAPFDYWGQGTLVTVSS
VL: DIVMTQTPSSLSASVGDRVTITCRASQGISSWLAWYQQKPEKAPRSLIYAASSLQSGVPSRFSGSGSGTDFTLTISSLQPEDFATYYCQQYISYPYTFGQGTKLEIK
B-MUC2
  RLU: 237 RLU
Tn3 linker
  RLU: 24 RLU
D-MUC2
  RLU: 179 RLU
PADRE Tn3b
  RLU: 49 RLU
